Where two headings read alike, the source gives them in different places.
Assays:
[1] = target: T1, extracellular domain of human TF protein (human, UniProt P13726 34-251); test: ELISA, coated TF extracellular domain
T1 construct: range 34-251; Limits 34-251 are stated for the immunogen; also called the extracellular domain protein of TF; TF antigen
Experimental: (§1) The antigen (the extracellular domain protein of TF) was diluted to 0.5 μg/mL with a coating solution, and was used to coat an ELISA plate overnight, at 100 μL/well and 4° C. The excessive antigen was removed by washing. The plate was blocked with 2% BSA at room temperature for 2 h, and then each of the 3-fold serial diluted monoclonal antibodies was added at 100 μL/well, and was incubated for 2 h at room temperature. The unbound antibodies were removed by washing, and an appropriate concentration of horseradish peroxidase-labeled anti-mouse secondary antibody was added at 100 μL/well, and incubated for 1 h at room temperature. The unbound secondary antibody was removed by washing, TMB chromogenic solution was added, and the color was developed to an appropriate color depth. 2M H₂SO₄ was added at 50 μL/well, to stop the chromogenic reaction, the absorbance at 450 nm was then determined, and the data was analyzed.

[2] = target: T2, human TF on the cell surface of tumor cells (human, UniProt P13726 33-295); test: flow cytometry on U87MG cells
T2 construct: whole, on cells; Endogenous TF on TF-positive human tumor cell lines; also called cell surface TF
Experimental: (§2) The cells were washed with PBS twice to remove the unbound primary antibody, and the target cells were incubated with 200 μL PE-labeled secondary antibody (2 μg/mL) at 4° C. for 30 min. The cells were washed with PBS twice to remove the unbound secondary antibody, and finally the cells were re-suspended in 400 μL PBS.

[3] = target: T2, human TF on the cell surface of tumor …; test: flow cytometry on MDA-MB-231 cells
[4] = target: T2, human TF on the cell surface of tumor …; test: cell-based or functional assay
[5] = target: T3, murine TF (B16-F10 cells) (murine, UniProt P20352 29-294); test: flow cytometry on B16-F10 cells
T3 construct: whole, on cells
T3 sequence (looked up): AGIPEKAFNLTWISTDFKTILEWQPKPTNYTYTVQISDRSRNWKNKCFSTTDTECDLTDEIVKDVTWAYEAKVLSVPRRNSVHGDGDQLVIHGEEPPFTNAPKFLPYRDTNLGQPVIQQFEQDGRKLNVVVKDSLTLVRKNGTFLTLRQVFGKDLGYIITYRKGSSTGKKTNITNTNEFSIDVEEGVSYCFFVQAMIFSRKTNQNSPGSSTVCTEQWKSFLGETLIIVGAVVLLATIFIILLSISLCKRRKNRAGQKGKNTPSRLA
Excerpt: After preliminary screening, about 30 hybridoma cells were selected for secondary limiting dilution cloning, and then 6 antibodies were selected for large-scale expression and purification.

[6] = target: T2, human TF on the cell surface of tumor …; test: flow cytometry on BxPC-3 cells
Experimental: as §2

[7] = target: T1, extracellular domain of human TF protein; test: ELISA, coated TF extracellular domain; remark: listed apart in the source
Experimental: as §1
Firstly, the 20 humanized antibodies were determined for their affinity for the extracellular domain protein of TF by ELISA binding assay (The experimental method refers to Step \textcircled{4} of Example 1).

[8] = target: T2, human TF on the cell surface of tumor …; test: flow cytometry on HCC1806 cells
[9] = target: T2, human TF on the cell surface of tumor …; test: flow cytometry on MDA-MB-231 cells, antibody at 1 µg/mL
Experimental: as §2

[10] = target: T2, human TF on the cell surface of tumor …; test: flow cytometry on MDA-MB-231 cells, antibody at 10 µg/mL; design: reference not given here
Experimental: as §2

B1: TF-mAb-SC1 (antibody, V domains shown)
VH: QVQLQQPGAELVRPGASVKLSCKASGYSFISYWMNWVKQRPGQGLEWIGMIYPADSETRLNQKFKDKATLTVDKSSSTAYMQLSSPTSEDSAVYYCAREDYGSSDYWGQGTTLTVSS
VL: EILLTQSPAIIAASPGEKVTITCSASSSVSYMNWYLQKPGSSPKIWIYGISNLASGVPARFSGSGSGTSFSFTINSMETEDVATYYCQQKSSFPWTFGGGTKLEIK
[1]
  EC50: ~0.019 nM
[2]
  EC50: 1.6 nM
[3]
  EC50: 2.5 nM
[4]
  IC50 of inhibiting FXa production (BxPC-3 cells): 9 nM
  IC50 of inhibiting FXa production (MDA-MB-231 cells): 6.4 nM
[5]
  binding result: no binding (tested: 10 µg/mL)
[6]
  EC50: 2.6 nM

B2: TF-mAb-Ch (antibody, V domains shown)
VH: B1 VH
VL: B1 VL
notes: Variable regions of TF-mAb-SC1 cloned into vectors with human IgG1 heavy chain constant region and human kappa constant region; also called human-mouse chimeric antibody; chimeric antibody TF-mAb-Ch
[1]
  EC50: ~0.011 nM
[3]
  EC50: 2.3 nM
[7]
  EC50: 0.01 nM
[8]
  EC50: 2.1 nM
[9]
  MFI: 3370
[10]
  MFI: 3540

B3: TF-mAb-H46 (antibody, V domains shown)
VH: EVQLVQSGAEVKKPGESLKISCKGSGYSFTSYWMNWVKQMPGKGLEWMGMIYPADSETRLNQKFKDKATLSVDKSISTAYLQWSSLKASDTAMYYCAREDYGSSDYWGQGTTVTVSS
VL: EIVLTQSPDFQSVTPKEKVTITCSASSSVSYMNWYQQKPDQSPKIWIYGISNLASGVPSRFSGSGSGTDFTLTINSLEAEDAATYYCQQKSSFPWTFGGGTKVEIK
notes: Humanized
[7]
  EC50: 0.0119 nM
[9]
  MFI: 3120
[10]
  MFI: 3410

B4: TF-mAb-H47 (antibody, V domains shown)
VH: QVQLVQSGAEVKKPGASVKVSCKASGYSFISYWMNWVRQAPGQGLEWIGMIYPADSETRLNQKFKDRATLTVDKSTSTAYMELSSLRSEDTAVYYCAREDYGSSDYWGQGTTVTVSS
VL: B3 VL
notes: Humanized
[7]
  EC50: 0.013 nM
[9]
  MFI: 3000
[10]
  MFI: 3150

B5: TF-mAb-H48 (antibody, V domains shown)
VH: QVQLVQSGSELKKPGASVKVSCKASGYSFISYWMNWVRQAPGQGLEWIGMIYPADSETRLNQKFKDRAVLSVDKSVSTAYLQICSLKAEDTAVYYCAREDYGSSDYWGQGTTVTVSS
VL: B3 VL
notes: Humanized
[7]
  EC50: 0.0153 nM
[9]
  MFI: 2610
[10]
  MFI: 2900
